Columns and labels:
[1] = target: T1, human CD45 receptor on the surface of human T cells (human, UniProt P08575 26-1306); assay: flow cytometry titration on activated primary human CD8 T cells, anti-human IgG-Fc detection
T1 construct: whole, on cells; also called cellular CD45; leukocyte common antigen
T1 sequence (looked up): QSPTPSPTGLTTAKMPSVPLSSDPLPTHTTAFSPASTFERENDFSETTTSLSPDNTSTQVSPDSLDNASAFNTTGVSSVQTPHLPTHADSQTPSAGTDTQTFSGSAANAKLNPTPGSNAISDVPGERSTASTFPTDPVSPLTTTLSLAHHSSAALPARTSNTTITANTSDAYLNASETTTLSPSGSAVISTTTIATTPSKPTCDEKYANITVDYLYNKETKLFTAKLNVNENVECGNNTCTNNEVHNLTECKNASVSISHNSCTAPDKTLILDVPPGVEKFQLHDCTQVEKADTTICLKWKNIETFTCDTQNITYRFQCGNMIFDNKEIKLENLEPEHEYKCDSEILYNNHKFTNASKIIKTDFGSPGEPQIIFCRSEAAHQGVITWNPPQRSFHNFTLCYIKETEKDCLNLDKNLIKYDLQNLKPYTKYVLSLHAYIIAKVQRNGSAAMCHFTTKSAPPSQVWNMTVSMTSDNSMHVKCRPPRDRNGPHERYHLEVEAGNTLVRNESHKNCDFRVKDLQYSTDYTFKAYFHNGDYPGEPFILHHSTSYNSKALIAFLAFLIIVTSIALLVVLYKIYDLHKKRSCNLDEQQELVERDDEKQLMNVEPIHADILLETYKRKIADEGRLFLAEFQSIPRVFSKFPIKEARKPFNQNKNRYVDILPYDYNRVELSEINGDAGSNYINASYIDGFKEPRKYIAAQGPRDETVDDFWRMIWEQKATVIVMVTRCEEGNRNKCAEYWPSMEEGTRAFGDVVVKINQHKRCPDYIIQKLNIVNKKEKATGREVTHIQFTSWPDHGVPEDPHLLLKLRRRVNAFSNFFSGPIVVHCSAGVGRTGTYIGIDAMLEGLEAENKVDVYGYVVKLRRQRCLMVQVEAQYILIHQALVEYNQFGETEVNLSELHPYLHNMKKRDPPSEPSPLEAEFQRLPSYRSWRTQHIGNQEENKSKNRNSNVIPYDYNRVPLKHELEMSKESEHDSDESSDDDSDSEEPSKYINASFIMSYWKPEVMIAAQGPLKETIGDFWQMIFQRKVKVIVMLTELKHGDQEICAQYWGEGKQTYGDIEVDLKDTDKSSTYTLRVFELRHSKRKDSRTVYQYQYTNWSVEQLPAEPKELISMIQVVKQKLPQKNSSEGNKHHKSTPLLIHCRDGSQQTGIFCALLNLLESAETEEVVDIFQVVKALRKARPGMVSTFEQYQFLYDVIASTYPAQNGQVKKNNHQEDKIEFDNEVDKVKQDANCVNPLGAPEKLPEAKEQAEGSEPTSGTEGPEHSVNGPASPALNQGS
From the text: To evaluate whether anti-CD45 antibodies other than BC8 are capable of generating IFMs with improved potency, we evaluated two additional anti-CD45 monoclonal antibodies (mAb clones 9.4 and 4B2). We first evaluated the binding affinities of chimeric IgG forms of these antibodies to CD45 expressed on the surface of activated CD8 T cells. The chimeric antibodies each comprise mouse variable domains and human constant region (human constant kappa domain and human IgG4 containing an S228P mutation to stabilize the IgG4 hinge region). For comparison with previous results we evaluated these antibodies alongside chBC8, hBC8(23), and a non-binding variant hBC8-null. The humanized BC8 antibody consists of variable domains containing CDR regions grafted from BC8, and the hBC8-null variant contains an SGGGS substitution in the heavy-chain CDR3, which ablates binding to CD45 (FIG. 10A). […]
Cell binding assay. […] Cells were washed with MACS buffer (PBS, 2% FBS, 1 mM EDTA) three times, and antibody binding was detected using a PE-conjugated anti-human IgG-Fc antibody (BioLegend, cat. no. HP6017) for 20 min. at 4° C. […]

[2] = target: T2, mouse CD45 on the surface of mouse T cells (mouse, UniProt P06800 26-1293); assay: pulse incubation at 125 nM on activated mouse CD8 T cells, anti-mouse IL-12 staining by flow cytometry (FIG. 32)
T2 construct: whole, on cells
T2 sequence (looked up): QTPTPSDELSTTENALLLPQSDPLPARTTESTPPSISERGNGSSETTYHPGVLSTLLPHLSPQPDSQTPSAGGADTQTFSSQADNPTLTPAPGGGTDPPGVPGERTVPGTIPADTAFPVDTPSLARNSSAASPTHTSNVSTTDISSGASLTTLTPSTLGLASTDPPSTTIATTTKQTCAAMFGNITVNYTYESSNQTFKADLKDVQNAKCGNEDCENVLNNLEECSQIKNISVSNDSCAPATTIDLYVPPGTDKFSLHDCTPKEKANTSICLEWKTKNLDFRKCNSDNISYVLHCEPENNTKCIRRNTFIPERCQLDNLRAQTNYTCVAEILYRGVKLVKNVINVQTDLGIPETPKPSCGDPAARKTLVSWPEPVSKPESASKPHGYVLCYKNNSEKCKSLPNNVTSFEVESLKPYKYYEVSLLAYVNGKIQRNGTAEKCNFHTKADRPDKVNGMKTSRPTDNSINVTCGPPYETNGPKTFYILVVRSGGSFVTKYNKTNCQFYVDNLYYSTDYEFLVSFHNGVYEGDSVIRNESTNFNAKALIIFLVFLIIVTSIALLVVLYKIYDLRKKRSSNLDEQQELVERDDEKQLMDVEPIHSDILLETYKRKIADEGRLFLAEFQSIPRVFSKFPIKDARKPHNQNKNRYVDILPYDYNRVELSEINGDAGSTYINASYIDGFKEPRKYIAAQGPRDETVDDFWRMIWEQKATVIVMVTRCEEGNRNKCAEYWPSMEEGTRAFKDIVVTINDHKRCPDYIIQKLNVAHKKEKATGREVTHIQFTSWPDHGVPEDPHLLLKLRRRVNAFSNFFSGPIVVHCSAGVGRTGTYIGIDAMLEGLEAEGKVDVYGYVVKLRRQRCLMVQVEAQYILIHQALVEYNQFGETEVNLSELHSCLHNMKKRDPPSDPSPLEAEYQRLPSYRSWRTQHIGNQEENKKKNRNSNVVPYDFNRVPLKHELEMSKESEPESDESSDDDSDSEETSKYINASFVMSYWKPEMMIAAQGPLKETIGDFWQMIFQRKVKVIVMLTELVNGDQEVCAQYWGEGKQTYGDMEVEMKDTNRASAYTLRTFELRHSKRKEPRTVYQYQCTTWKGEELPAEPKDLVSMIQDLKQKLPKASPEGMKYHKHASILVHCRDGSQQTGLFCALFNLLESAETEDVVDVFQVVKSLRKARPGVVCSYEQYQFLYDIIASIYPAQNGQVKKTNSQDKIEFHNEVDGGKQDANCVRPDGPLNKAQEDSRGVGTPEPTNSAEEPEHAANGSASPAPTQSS
Method: We evaluated the ability of tethered fusions comprising an antibody specific for mouse CD45 and the mouse scIL-12p70 cytokine to facilitate loading and persistence of IL-12 on the surface of mouse T cells. Prior to incubation with the mouse IL12-TFs, mouse CD8 T cells were isolated from Pmel mice, activated for two days using antibodies against mouse CD3 and CD28 receptors, and then expanded in the presence of IL-21 for two days. Briefly, isolated CD8 T cells were incubated in full medium (containing RPMI 1640, 10% FBS, insulin-transferrin-selenium, penicillin/streptomycin, and 50 uM beta-mercaptoethanol) in Nunc HighBind plates that were previously coated with antibodies against mouse CD3 and CD28 receptors; the CD3 and CD28 antibodies were coated at concentrations of 0.5 ug/mL and 5 ug/mL, respectively. After approximately 24 hr incubation on the antibody-coated plates IL-2 and IL-7 were added to a final concentrations of 20 ng/mL and 0.5 ng/mL respectively. After a second day of incubation, cells were recovered from the antibody-coated plates and diluted to a density of approximately 200,000 cells/mL into medium containing IL-21 at a final concentration of 20 ng/mL. […] On Days 0, 1, 3, and 5 after the pulse incubation cells were immunostained using antibodies specific to mouse IL-12 and analyzed on a FACSCelesta using Diva Software; data was analyzed using FlowJo. […]

B1: hBC8-null humanized BC8 antibody with SGGGS substitution in CDR-H3 (IgG form) (antibody, V domains shown)
VH: EVQLVESGGGLVQPGGSLRLSCAASGFDFSRYWMSWVRQAPGKGLEWIGEINPTSSTINFADSVKGRFTISRDNAKNSLYLQMNSVRDEDTAVYYCARGSGGGSGDAMDYWGQGTLVTVSS
VL: EIVLTQSPATLSLSLGERATISCRASKSVSTSGYSYLHWYQQKPGQAPKLLIYLASNRATGVPARFSGSGPGTDFTLTISSLEPEDFATYYCQHSRELPFTFGQGTKLEIK
notes: constant regions of the tested antibody not spelled out; also called hBC8(23)-null
binding result [1]: no binding (tested: 500 nM)

B2: chM1Fab-M1scFv-scIL-12p70 (other)
heavy: QVNLLQSGAALVKPGASVKLSCKASGYTFTDYYIHWVKQSHGKSLEWVAYINPDRDYTNYNEKFKSKATLTVDKSTNTAYMELSRLTSEDSATFYCTRRLYDGAYYYSWFAYWGQGTLVTVSSASTKGPSVFPLAPSSKSTSGGTAALGCLVKDYFPEPVTVSWNSGALTSGVHTFPAVLQSSGLYSLSSVVTVPSSSLGTQTYICNVNHKPSNTKVDKKVEPKSCGGGGSGGGGSGGGGSQVNLLQSGAALVKPGASVKLSCKASGYTFTDYYIHWVKQSHGKSLEWVAYINPDRDYTNYNEKFKSKATLTVDKSTNTAYMELSRLTSEDSATFYCTRRLYDGAYYYSWFAYWGQGTLVTVSSGGGGSGGGGSGGGGSGGGGSDIQMTQSPHSLSASLGETVSIECLASEGISNYLAWYQQKPGKSPQLLIYYGSRLQDGVPSRFSGSGSGTQYSLRITNMQPEDEGVYYCQQGYKYPYTFGAGTKLELK
light: DIQMTQSPHSLSASLGETVSIECLASEGISNYLAWYQQKPGKSPQLLIYYGSRLQDGVPSRFSGSGSGTQYSLRITNMQPEDEGVYYCQQGYKYPYTFGAGTKLELKRTVAAPSVFIFPPSDEQLKSGTASVVCLLNNFYPREAKVQWKVDNALQSGNSQESVTEQDSKDSTYSLSSTLTLSKADYEKHKVYACEVTHQGLSSPVTKSFNRGECGGGGSGGGGSGGGGSMWELEKDVYVVEVDWTPDAPGETVNLTCDTPEEDDITWTSDQRHGVIGSGKTLTITVKEFLDAGQYTCHKGGETLSHSHLLLHKKENGIWSTEILKNFKNKTFLKCEAPNYSGRFTCSWLVQRNMDLKFNIKSSSSSPDSRAVTCGMASLSAEKVTLDQRDYEKYSVSCQEDVTCPTAEETLPIELALEARQQNKYENYSTSFFIRDIIKPDPPKNLQMKPLKNSQVEVSWEYPDSWSTPHSYFSLKFFVRIQRKKEKMKETEEGCNQKGAFLVEKTSTEVQCKGGNVCVQAQDRYYNSSCSKWACVPCRVRSGGGGSGGGGSGGGGSGGGGSRVIPVSGPARCLSQSRNLLKTTDDMVKTAREKLKHYSCTAEDIDHEDITRDQTSTLKTCLPLELHKNESCLATRETSSTTRGSCLPPQKTSLMMTLCLGSIYEDLKMYQTEFQAINAALQNHNHQQIILDKGMLVAIDELMQSLNHNGETLRQKPPVGEADPYRVKMKLCILLHAFSTRVVTINRVMGYLSSA
binding result [2]: binds
